The values that follow come from IntAct's records for PubMed 29039417.

To fix the notation:
B1: BBSome complex member BBS4 (Homo sapiens), Q96RK4 (parent)
chain: MAEERVATRTQFPVSTESQKPRQKKAPEFPILEKQNWLIHLHYIRKDYEACKAVIKEQLQETQGLCEYAIYVQALIFRLEGNIQESLELFQTCAVLSPQSADNLKQVARSLFLLGKHKAAIEVYNEAAKLNQKDWEISHNLGVCYIYLKQFNKAQDQLHNALNLNRHDLTYIMLGKIHLLEGDLDKAIEVYKKAVEFSPENTELLTTLGLLYLQLGIYQKAFEHLGNALTYDPTNYKAILAAGSMMQTHGDFDVALTKYRVVACAVPESPPLWNNIGMCFFGKKKYVAAISCLKRANYLAPFDWKILYNLGLVHLTMQQYASAFHFLSAAINFQPKMGELYMLLAVALTNLEDIENAKRAYAEAVHLDKCNPLVNLNYAVLLYNQGEKKNALAQYQEMEKKVSLLKDNSSLEFDSEMVEMAQKLGAALQVGEALVWTKPVKDPKSKHQTTSTSKPASFQQPLGSNQALGQAMSSAAAYRTLPSGAGGTSQFTKPPSLPLEPEPAVESSPTETSEQIREK
partner: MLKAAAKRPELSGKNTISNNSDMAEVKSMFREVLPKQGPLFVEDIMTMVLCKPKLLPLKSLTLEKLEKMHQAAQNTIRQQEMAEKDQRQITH

The variants in this test derive from B1. As to conditions: with bbip1_human BBIP1, A8MTZ0.
Turning to MAEERVATRTQFPVSTESQKPRQKKAPEFPILEKQNWLIHLHYIRKDYEACKAVIKEQLQETQGLCEYAIYVQALIFRLEGNIQESLELFQTCAVLSPQSADNLKQVARSLFLLGKHKAAIEVYNEAAKLNQKDWEISHNLGVCYIYLKQFNKAQDQLHNALNLNRHDLTYIMLGKIHLLEGDLDKAIEVYKKAVEFSPENTELLTTLGLLYLQLGIYQKAFEHLGNALTYDPTNYKAILAAGSMMQTHGDFDVALTKYRVVACAVPESPPLWNNIGMCFFGKKKYVAAISCLKRANYLAPFDWKILYNLGLVHLTMQQYASAFHFLSAAINFQPKMGELYMLLAVALTNLEDIENAKRAYAEAVHLDKCNPLVNLNYAVLLYNQGEKKNALAQYQEMEKKVSLLKDNSSLEFDSEMEEMAQKLGAALQVGEALVWTKPVKDPKSKHQTTSTSKPASFQQPLGSNQALGQAMSSAAAYRTLPSGAGGTSQFTKPPSLPLEPEPAVESSPTETSEQIREK [V418E], the “effect of a mutation on the interaction” value is on record as “with no effect”. For the variant MAEERVATRTQFPVSTESQKPRQKKAPEFPILEKQNWLIHLHYIRKDYEACKAVIKEQLQETQGLCEYAIYVQALIFRLEGNIQESLELFQTCAVLSPQSADNLKQVARSLFLLGKHKAAIEVYNEAAKLNQKDWEISHNLGVCYIYLKQFNKAQDQLHNALNLNRHDLTYIMLGKIHLLEGDLDKAIEVYKKAVEFSPENTELLTTLGLLYLQLGIYQKAFEHLGNALTYDPTNYKAILAAGSMMQTHGDFDVALTKYRVVACAVPESPPLWNNIGMCFFGKKKYVAAISCLKRANYLAPFDWKILYNLGLVHLTMQQYASAFHFLSAAINFQPKMGELYMLLAVALTNLEDIENAKRAYAEAVHLDKCNPLVNLNYAVLLYNQGEKKNALAQYQEMEKKVSLLKDNSSLEFDSEMKEMAQKLGAALQVGEALVWTKPVKDPKSKHQTTSTSKPASFQQPLGSNQALGQAMSSAAAYRTLPSGAGGTSQFTKPPSLPLEPEPAVESSPTETSEQIREK [V418K], the “effect of a mutation on the interaction” value is listed as “with no effect”. In the case of MAEERVATRTQFPVSTESQKPRQKKAPEFPILEKQNWLIHLHYIRKDYEACKAVIKEQLQETQGLCEYAIYVQALIFRLEGNIQESLELFQTCAVLSPQSADNLKQVARSLFLLGKHKAAIEVYNEAAKLNQKDWEISHNLGVCYIYLKQFNKAQDQLHNALNLNRHDLTYIMLGKIHLLEGDLDKAIEVYKKAVEFSPENTELLTTLGLLYLQLGIYQKAFEHLGNALTYDPTNYKAILAAGSMMQTHGDFDVALTKYRVVACAVPESPPLWNNIGMCFFGKKKYVAAISCLKRANYLAPFDWKILYNLGLVHLTMQQYASAFHFLSAAINFQPKMGELYMLLAVALTNLEDIENAKRAYAEAVHLDKCNPLVNLNYAVLLYNQGEKKNALAQYQEMEKKVSLLKDNSSLEFDSEMAEMAQKLGAALQVGEALVWTKPVKDPKSKHQTTSTSKPASFQQPLGSNQALGQAMSSAAAYRTLPSGAGGTSQFTKPPSLPLEPEPAVESSPTETSEQIREK [V418A], the “effect of a mutation on the interaction” value is “with no effect”.

Regarding MAEERVATRTQFPVSTESQKPRQKKAPEFPILEKQNWLIHLHYIRKDYEACKAVIKEQLQETQGLCEYAIYVQALIFRLEGNIQESLELFQTCAVLSPQSADNLKQVARSLFLLGKHKAAIEVYNEAAKLNQKDWEISHNLGVCYIYLKQFNKAQDQLHNALNLNRHDLTYIMLGKIHLLEGDLDKAIEVYKKAVEFSPENTELLTTLGLLYLQLGIYQKAFEHLGNALTYDPTNYKAILAAGSMMQTHGDFDVALTKYRVVACAVPESPPLWNNIGMCFFGKKKYVAAISCLKRANYLAPFDWKILYNLGLVHLTMQQYASAFHFLSAAINFQPKMGELYMLLAVALTNLEDIENAKRAYAEAVHLDKCNPLVNLNYAVLLYNQGEKKNALAQYQEMEKKVSLLKDNSSLEFDSEMVEAAQKLGAALQVGEALVWTKPVKDPKSKHQTTSTSKPASFQQPLGSNQALGQAMSSAAAYRTLPSGAGGTSQFTKPPSLPLEPEPAVESSPTETSEQIREK [M420A], the “effect of a mutation on the interaction” value was “with no effect”. The same measure for MAEERVATRTQFPVSTESQKPRQKKAPEFPILEKQNWLIHLHYIRKDYEACKAVIKEQLQETQGLCEYAIYVQALIFRLEGNIQESLELFQTCAVLSPQSADNLKQVARSLFLLGKHKAAIEVYNEAAKLNQKDWEISHNLGVCYIYLKQFNKAQDQLHNALNLNRHDLTYIMLGKIHLLEGDLDKAIEVYKKAVEFSPENTELLTTLGLLYLQLGIYQKAFEHLGNALTYDPTNYKAILAAGSMMQTHGDFDVALTKYRVVACAVPESPPLWNNIGMCFFGKKKYVAAISCLKRANYLAPFDWKILYNLGLVHLTMQQYASAFHFLSAAINFQPKMGELYMLLAVALTNLEDIENAKRAYAEAVHLDKCNPLVNLNYAVLLYNQGEKKNALAQYQEMEKKVSLLKDNSSLEFDSEMVEEAQKLGAALQVGEALVWTKPVKDPKSKHQTTSTSKPASFQQPLGSNQALGQAMSSAAAYRTLPSGAGGTSQFTKPPSLPLEPEPAVESSPTETSEQIREK [M420E]: “with no effect”. The same measure for MAEERVATRTQFPVSTESQKPRQKKAPEFPILEKQNWLIHLHYIRKDYEACKAVIKEQLQETQGLCEYAIYVQALIFRLEGNIQESLELFQTCAVLSPQSADNLKQVARSLFLLGKHKAAIEVYNEAAKLNQKDWEISHNLGVCYIYLKQFNKAQDQLHNALNLNRHDLTYIMLGKIHLLEGDLDKAIEVYKKAVEFSPENTELLTTLGLLYLQLGIYQKAFEHLGNALTYDPTNYKAILAAGSMMQTHGDFDVALTKYRVVACAVPESPPLWNNIGMCFFGKKKYVAAISCLKRANYLAPFDWKILYNLGLVHLTMQQYASAFHFLSAAINFQPKMGELYMLLAVALTNLEDIENAKRAYAEAVHLDKCNPLVNLNYAVLLYNQGEKKNALAQYQEMEKKVSLLKDNSSLEFDSEMVEKAQKLGAALQVGEALVWTKPVKDPKSKHQTTSTSKPASFQQPLGSNQALGQAMSSAAAYRTLPSGAGGTSQFTKPPSLPLEPEPAVESSPTETSEQIREK [M420K]: “with no effect”; for MAEERVATRTQFPVSTESQKPRQKKAPEFPILEKQNWLIHLHYIRKDYEACKAVIKEQLQETQGLCEYAIYVQALIFRLEGNIQESLELFQTCAVLSPQSADNLKQVARSLFLLGKHKAAIEVYNEAAKLNQKDWEISHNLGVCYIYLKQFNKAQDQLHNALNLNRHDLTYIMLGKIHLLEGDLDKAIEVYKKAVEFSPENTELLTTLGLLYLQLGIYQKAFEHLGNALTYDPTNYKAILAAGSMMQTHGDFDVALTKYRVVACAVPESPPLWNNIGMCFFGKKKYVAAISCLKRANYLAPFDWKILYNLGLVHLTMQQYASAFHFLSAAINFQPKMGELYMLLAVALTNLEDIENAKRAYAEAVHLDKCNPLVNLNYAVLLYNQGEKKNALAQYQEMEKKVSLLKDNSSLEFDSEKVEMAQKLGAALQVGEALVWTKPVKDPKSKHQTTSTSKPASFQQPLGSNQALGQAMSSAAAYRTLPSGAGGTSQFTKPPSLPLEPEPAVESSPTETSEQIREK [M417K]: “with no effect”; for MAEERVATRTQFPVSTESQKPRQKKAPEFPILEKQNWLIHLHYIRKDYEACKAVIKEQLQETQGLCEYAIYVQALIFRLEGNIQESLELFQTCAVLSPQSADNLKQVARSLFLLGKHKAAIEVYNEAAKLNQKDWEISHNLGVCYIYLKQFNKAQDQLHNALNLNRHDLTYIMLGKIHLLEGDLDKAIEVYKKAVEFSPENTELLTTLGLLYLQLGIYQKAFEHLGNALTYDPTNYKAILAAGSMMQTHGDFDVALTKYRVVACAVPESPPLWNNIGMCFFGKKKYVAAISCLKRANYLAPFDWKILYNLGLVHLTMQQYASAFHFLSAAINFQPKMGELYMLLAVALTNLEDIENAKRAYAEAVHLDKCNPLVNLNYAVLLYNQGEKKNALAQYQEMEKKVSLLKDNSSLEFDSEMVKMAQKLGAALQVGEALVWTKPVKDPKSKHQTTSTSKPASFQQPLGSNQALGQAMSSAAAYRTLPSGAGGTSQFTKPPSLPLEPEPAVESSPTETSEQIREK [E419K]: “with no effect”. The same measure for MAEERVATRTQFPVSTESQKPRQKKAPEFPILEKQNWLIHLHYIRKDYEACKAVIKEQLQETQGLCEYAIYVQALIFRLEGNIQESLELFQTCAVLSPQSADNLKQVARSLFLLGKHKAAIEVYNEAAKLNQKDWEISHNLGVCYIYLKQFNKAQDQLHNALNLNRHDLTYIMLGKIHLLEGDLDKAIEVYKKAVEFSPENTELLTTLGLLYLQLGIYQKAFEHLGNALTYDPTNYKAILAAGSMMQTHGDFDVALTKYRVVACAVPESPPLWNNIGMCFFGKKKYVAAISCLKRANYLAPFDWKILYNLGLVHLTMQQYASAFHFLSAAINFQPKMGELYMLLAVALTNLEDIENAKRAYAEAVHLDKCNPLVNLNYAVLLYNQGEKKNALAQYQEMEKKVSLLKDNSSLEFDSEMVAMAQKLGAALQVGEALVWTKPVKDPKSKHQTTSTSKPASFQQPLGSNQALGQAMSSAAAYRTLPSGAGGTSQFTKPPSLPLEPEPAVESSPTETSEQIREK [E419A]: “with no effect”; for MAEERVATRTQFPVSTESQKPRQKKAPEFPILEKQNWLIHLHYIRKDYEACKAVIKEQLQETQGLCEYAIYVQALIFRLEGNIQESLELFQTCAVLSPQSADNLKQVARSLFLLGKHKAAIEVYNEAAKLNQKDWEISHNLGVCYIYLKQFNKAQDQLHNALNLNRHDLTYIMLGKIHLLEGDLDKAIEVYKKAVEFSPENTELLTTLGLLYLQLGIYQKAFEHLGNALTYDPTNYKAILAAGSMMQTHGDFDVALTKYRVVACAVPESPPLWNNIGMCFFGKKKYVAAISCLKRANYLAPFDWKILYNLGLVHLTMQQYASAFHFLSAAINFQPKMGELYMLLAVALTNLEDIENAKRAYAEAVHLDKCNPLVNLNYAVLLYNQGEKKNALAQYQEMEKKVSLLKDNSSLEFDSEMVEMVQKLGAALQVGEALVWTKPVKDPKSKHQTTSTSKPASFQQPLGSNQALGQAMSSAAAYRTLPSGAGGTSQFTKPPSLPLEPEPAVESSPTETSEQIREK [A421V]: “disrupting interaction strength”; for MAEERVATRTQFPVSTESQKPRQKKAPEFPILEKQNWLIHLHYIRKDYEACKAVIKEQLQETQGLCEYAIYVQALIFRLEGNIQESLELFQTCAVLSPQSADNLKQVARSLFLLGKHKAAIEVYNEAAKLNQKDWEISHNLGVCYIYLKQFNKAQDQLHNALNLNRHDLTYIMLGKIHLLEGDLDKAIEVYKKAVEFSPENTELLTTLGLLYLQLGIYQKAFEHLGNALTYDPTNYKAILAAGSMMQTHGDFDVALTKYRVVACAVPESPPLWNNIGMCFFGKKKYVAAISCLKRANYLAPFDWKILYNLGLVHLTMQQYASAFHFLSAAINFQPKMGELYMLLAVALTNLEDIENAKRAYAEAVHLDKCNPLVNLNYAVLLYNQGEKKNALAQYQEMEKKVSLLKDNSSLEFDSEMVEMKQKLGAALQVGEALVWTKPVKDPKSKHQTTSTSKPASFQQPLGSNQALGQAMSSAAAYRTLPSGAGGTSQFTKPPSLPLEPEPAVESSPTETSEQIREK [A421K]: “with no effect”. Take MAEERVATRTQFPVSTESQKPRQKKAPEFPILEKQNWLIHLHYIRKDYEACKAVIKEQLQETQGLCEYAIYVQALIFRLEGNIQESLELFQTCAVLSPQSADNLKQVARSLFLLGKHKAAIEVYNEAAKLNQKDWEISHNLGVCYIYLKQFNKAQDQLHNALNLNRHDLTYIMLGKIHLLEGDLDKAIEVYKKAVEFSPENTELLTTLGLLYLQLGIYQKAFEHLGNALTYDPTNYKAILAAGSMMQTHGDFDVALTKYRVVACAVPESPPLWNNIGMCFFGKKKYVAAISCLKRANYLAPFDWKILYNLGLVHLTMQQYASAFHFLSAAINFQPKMGELYMLLAVALTNLEDIENAKRAYAEAVHLDKCNPLVNLNYAVLLYNQGEKKNALAQYQEMEKKVSLLKDNSSLEFDSEMVEMEQKLGAALQVGEALVWTKPVKDPKSKHQTTSTSKPASFQQPLGSNQALGQAMSSAAAYRTLPSGAGGTSQFTKPPSLPLEPEPAVESSPTETSEQIREK [A421E]: the “effect of a mutation on the interaction” value is recorded as “with no effect”.
